Measurements from the nanobody polyreactivity screen of Harvey et al. (2022).

Experiment: yeast display, Sf9 membrane polyspecificity reagent, FACS + sequencing; frameworks hold sequencing errors
Procedure, shortened: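 Sorting gates, low and high (top ~1%), were placed on anti-HA fluorescence to track expression and on streptavidin fluorescence to track reagent binding. A clone's polyreactivity label is taken from the gate it came out of. The reagent was 10% biotinylated, detergent-solubilized Sf9 membrane, applied for 1 hour at 4 °C to galactose-induced yeast display cells.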

| Sequence | polyreactivity (PSR sort gate) |
| --- | --- |
| QVQLVESRGGLVQAGGSLRLSCAASGGIFINYAMGWYRQAPGKERELVAAISRRGGSTYYADSVKGRFTISRDNAKNTVYLQMNSLKPEDTAVYYCNAVYLRGGMDYWGQGTQVTVSS | high polyreactivity |
| QVQLVESRGGLVQAGGSLRLSCAASGIIFSKNAMGWYRQAPGKERELVATINRSGGSTYADSVKGRFTISRDNAKNTVYLQMNSLKPEDTAVYYCAKRASPFWRGYDSCGQGTQVTVSS | high polyreactivity |
| QVQLVESRGGLVQAGGSLRLSCAASGIIFYQYAMGWYRQAPGKERELVAAITRSGGSTYFADSVKGRFTISRDNAKNTVYLQMKSLKPEDTAVYYCAARPFHSGYEGYGYWGQGTQVTVSS | high polyreactivity |
| QVQLVESRGGLVQAGGSLRLSCAASGLTFKWYAMGWYRQAHGKERELVAAISRDGSTYYADSVKGRFTISRDNAKNTVYLQMNSLKPEDTAVYYCAAEPRSRRVLYDYWGQGTQVTVSS | high polyreactivity |
| QVQLVESRGGLVQAGGSLRLSCAASGNTFRIYTMGWYRQAPGKDRELVATITRRGGYTYYADSVKGRFTISRDNAKNTVYLQMNSLKPEDTAVYYCNALPRPSYTFDYWGQGTQVTVSS | high polyreactivity |
| QVQLVESRGGLVQAGGSLRLSCAASGRINSRYAMGLSRQEPGKERELVAAISWNGGSTYYADSVKGRFTISRDNAMNTVYFQMNSLKPEDTAVYYCAAYRPGPYAAYGYWGQGTQVTVSS | high polyreactivity |
| QVQLVESRGGLVQAGGSLRLSCAASGRNFKANTMGWYRQAPGKERVVVAAITASGGTTYYADSVKGRFTISRDNAKNTVYLQMTSLKPEDTAVYYCAAAVWYRGWYRYEYWGQGSQVTVSS | low polyreactivity |
| QVQLVESRGGLVQAGGSLRLSCAASGRTFWYYAMGWYRQAPGKEMELVATITGSGGTTYYADSVKGRFTISRDNAKNTVYLQMNSLKREDTAVYYCAKEQHWYIYGPAEVDYWGQGTQVTVSS | high polyreactivity |
| QVQLVESRGGLVQAGGSLRLSCAASGRTIGLNAMGWYRQAPRKERELVASAITGGGDSTYYADSVKGRFTMSRDNAKNPVYLQMNSVKPEDTAVYYCAKRYSRGSQYDYWGQGTQVTVSS | high polyreactivity |
| QVQLVESRGGLVQAGGSLRLSCAASGSIFGANAMGWYRQEPGKEMELVAAISTRGGRTYYADSVKGRFTISRDNAKNTVYLQMISLKPEDTAVYYCATSGGRPYTYEYWGQGTQVTVSS | high polyreactivity |
| QVQLVESRGGLVQAGGSLRLSCAASGSIFGFYAMGWYRQAPGKERELVAAISSDGGSTYYADSVKGRFTISRDNAKNTVYLQMNSLKPEDTAVYYCAAAHGSIYDSTYYEYYYWGQGTQVTVSS | low polyreactivity |
| QVQLVESRGGLVQAGGSLRLSCAASGSIFGYYTMGWYRQAPGKDRELVAAISARGGRTYYADSVKGRFTISRDNAKNTVYLLMNSLKPEDTAVYYCAKRVYRRLYTGGQNPYDYWGQGTQVTVSS | high polyreactivity |
| QVQLVESRGGLVQAGGSLRLSCAASGSIFLYYARGWYIQAPGKERELDAAISISGGRTYYADSVKGRFTISRDNSKNTVYIQMNSLKPEDTAVYYCATKGYTGYAYRYGYWGQGTQVTVSS | high polyreactivity |
| QVQLVESRGGLVQAGGSLRLSCAASGSIFPVYAMGWYRQATGKERELVASISSSGGRTYYADSVKGRFTISRDNAKNTVYLQMNSLKPEDTAVYYCAAGAFHGVFWYEYWGQGTQVTVSS | high polyreactivity |
| QVQLVESRGGLVQAGGSLRLSCAASGSTFLNYAMGWYRQAPGKERELVAAISGSTTRTYYAESVKGRFTISRDNAKNTVYLQMNSLKPEDTAVYYCAATRGRGGRDDYWGQGSQVTVSS | high polyreactivity |
| QVQLVESRGGLVQAGGSLRLSCAASGSTFRIKAMGWYRQAPGNERELFAAIRASGTSTYYADSVKGRFTISRDNGQNTVYLLMIRLKPEDTAVDYCAASAQQPVLGLSYYYWGQGTQVTVSS | high polyreactivity |
| QVQLVESRGGLVQAGGSLRLSCAASGSTLYLYALGWYRQAPGKERELVAAISQSGTRTYYADSVKGRFTISRDNAKNTVYLQMNSQKPEDTAVSYCAAGRYQPYSYDYWGQGTQVTVSS | high polyreactivity |
| QVQLVESRGGLVQAGGSLRLSCAASGYTFDANAMGWYRQAPGKERELVASISSISDSTDYADSVKGRFTISRDNAKNTVYLQMNSLKPVDTAVYYCARSDVKPGRQERDYWGQGTQVTVSS | low polyreactivity |
| QVQLVESRGGLVQAGGSLRLSCACSGGIFVKSAMGCYRKAPCKERELVAAISKRGGRTYYADSVKGRFTISRDNAKNTVYLQMNSLKPEDTAVYYCYADVGVEYDYWGQGTQVTVSS | high polyreactivity |
| QVQLVESRGGLVQAGGSLRLSCPASGLIYVAYAMGWYRQAPGKERELVAAISRNGGSTYYADSVKGRFTISRDNAKNTVYLQMNSLKPEDTAVYYCAARYAYYTARYTQVKGLDYWGQGTQVTVSS | high polyreactivity |

| Sequence | polyreactivity (PSR sort gate) |
| --- | --- |
| QVQLVESRGGLVQAGGSLRLTCAASGFIFKGYAMGWYRQEPGTERELVAAISYSGGNTYYADSVKGRFTISRDNAKNTVYLQMNSLKPEDTAVYYCAVRKRKVLGMYYWGQGTQVTVSS | high polyreactivity |
| QVQLVESRGVLVQAGGSLRLSCAASGRTFYYYAMGWYRQAPRKERELVAAINTRRTSTYYADSVKGRFTISRDNAKKTVYLQMNSLKPEDTAVYYCAVDPYGDSWEDWFRNYYYGYDYWGQGTQVTVSS | low polyreactivity |
| QVQLVESSGGLVQAGGSLRLSCAASGFIFPLYTMGWYRQAPAKERELVAAISVTGGSTYYADSVKGRFTISRDNAKNTVYLQMNSLKPEDTAVYYCNAYLFFLNRVCSFDYWGQGTQVTVSS | high polyreactivity |
| QVQLVESSGGLVQAGGSLRLSCAASGFSFKRYAMGWYRQAPGTERELVAAINSGGSTNYADSVKGRFTMSRDNAKNTVYLQMNSLKPEDTAVYSCAASTPQYQYYYWGQGTQVTVSS | high polyreactivity |
| QVQLVESSGGLVQAGGSLRLSCAASGLTFDGYAMGWYRQAPGKEREIVAAITQSGGSTYYADSVKGRFTISRDNAKNTVYLQMNSLKPVDTAVYYCAADGVLIHISYFRVVDGGEDHWGQGTQVNVSS | low polyreactivity |
| QVQLVESSGGLVQAGGSLRLSCAASGRTFTSNAMGWYRQAPGKERELVAAISNGGSTYYADSVKGRFTISRDNAKNTVYLQMNSLKPEDTAVYYCAAQYRVLWYSYYYWGQGTQVTVSS | high polyreactivity |
| QVQLVESSGGLVQAGGSLRLSCSASGRTFVWYDMGWYRQAPGKERELVAAITKRGTSTYYADSVKGRFTISRDNAKNTVYLQMNSLKPEDTAVYYCAVEYIYWFHCRSSFIYDYWGQGTQVTVSS | low polyreactivity |
| QVQLVESSGGLVQAGGSLRLTCAASGSTFTIYAIGWYRQAPRKERELVAVISSSGGSTYYADSVMGRFTISRDNAKNTVYLQMNSLKPEDTAVYYCAADTRYVGGYLTLYYWGQGTQVTVSS | low polyreactivity |
| QVQLVESVGCLVQAGGSLRLSCAASGSTFDYYAMGWYRQAPGKERELVAAITSTGRTYYADSVKGRFTISRDNAKNTVYLQMNSLKPEDTAVYYCAADLPWGPLFDYWGQGTQVTVSS | low polyreactivity |
| QVQLVESVGCLVQAGGSLRLSCASTGRTFTPYAMGWYRHRPGKESEFVPAIDTSGGSTYADSVKGRFTISRDNANNTVYLQMNSLKPEDTAVYYCATRGFYSWSYWYLWEYDYWGQGTQVTVSS | low polyreactivity |
| QVQLVESVGCLVQAGGTLRLSCAATGRIFADYAMGWYRQAPGKERELVATITSGDRTYYADSVKGRFTTSRDNAKNTVYLQMNSLKPEDTAVYYCAAYKPWYVGLYPWYDYWGQGTQVTVSS | low polyreactivity |
| QVQLVESVGGLDQAGGSLPLSCAASGSTLAVYDMGWSRQAPGKESELVAAISTTGGRTYYADSVKGRFTISRDNSKNTVYLQMNRLKPEDTAVYYCNADAEDVIYYEYDYCGQGTQVTVSS | low polyreactivity |
| QVQLVESVGGLDQAGGSLRLSCAASGFTFYTNAMGWYRQAPGKEREFVAAISWSGTGTYYADSVKGRFTISRDNAKNTVYLQMYSLIPDDTAVYYCAARDRWRGGRKFDYWGQGTQVTVSS | high polyreactivity |
| QVQLVESVGGLLQAGGSLRLSCAASGSTFYNYAMGWYRQAPGKERELVAAIRNGGGTNYADSVKGRFTISRDNAKNTVYLQMNSLKPEDTAVYYCSTRLDWRRTYGYWGQGTQVTVSS | low polyreactivity |
| QVQLVESVGGLVHAGGSLRLSCAASGSIFTKNAMGWYRHAPGKERELVAAITGSGGSTYYADSVKGRFTISRDNAKNTVYLQMNSLKPEDTALYYCAANFVFWSGAVYTRYDYWGQGTQVTVSS | high polyreactivity |
| QVQLVESVGGLVQAGGRLRLSCAASGITFYSYTMGWYRQAPGKERELVAAISDNGGRTFYADSVKGRFTISRDNAKNTVYLQMNSLKPEDTAVYYCAASRRRAVDYWGQGTQVTVSS | low polyreactivity |
| QVQLVESVGGLVQAGGSLLLSCAAYGDISRYNTMGWYRQAPGKERELVPAITWSGGSTYADSVKGRFTISRDNAKNTVYLQMNSLKPEDTAVYYCAAGAYIWDNYSYRWYDYLGQGTQVTVSS | high polyreactivity |
| QVQLVESVGGLVQAGGSLRISCAASGRIFTHNVMGWYRQAPGKERELVAAISASGGSTYYADSVKGRFTISRDNAKNTVYLQMNSLKPEDTAVYYCNAGDYRTFYRRFDYWGQGTQVTVSS | low polyreactivity |
| QVQLVESVGGLVQAGGSLRLICAASGSIFLDNAKGCYRQAPVKERELVSAISWGGGSTYYADSVKGRFTISRDNAKNTVYVQMNSLKPEDTAVYYCAAESYYYIRYFDYSRWMGYWGQGTQVTVSS | low polyreactivity |
| QVQLVESVGGLVQAGGSLRLICACSGLNFVSYAMGWYRQAPGKERELVAAINSRGSRTYYADSVKGRLTISRDNAKNTVYLQMNSLKPEDTALYYCAAGVIRYGGKEEYYYWGQGTQVTVSS | high polyreactivity |
